In patent US20110150888A1 (Amgen, published 2011):
Changes are numbered by the printed parent chain. Names and notes keep the numbering of the source. Where no end group is shown, it is not given here.

T1: mouse hepcidin (mouse, UniProt Q9EQ21 59-83)
T1 peptide (looked up): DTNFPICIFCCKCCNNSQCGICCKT

B1: 15E1 A99H (antibody, V domains shown)
VH: QVQLVESGGGVVQPGRSLRLSCAASGFTFSSYGMHWVRQAPGKGLEWVAVIWYAESNKYYADSVKGRFTISRDNSKNTLYLQMNSLRAEDTAVYYCARHQEGIAPDAFDIWGQGTMVTVSS
VL: SYELTQPPSVSVSPGQTATITCSGDKLGERYACWYQQRPGQSPVLVIYQDSKRPSGIPERFSGSNSGNTATLTISGTQAMDEADYFCQAWYSSTNVLFGGGTKLTVL
notes: Histidine mutant of 15E1, transiently expressed in 293-6E cells; constant regions as in wild-type 15E1; also called A99H (heavy chain)
B2: antibody 1S3 (antibody, human IgG2, lambda, V domains shown)
VH: B1 VH with H99A
VL: YELTQPPSVSVSPGQTATITCSGDKLGERYASWYQQRPGQSPVLVIYQDIKRPSGIPERFSGSNSGNTATLTISGTQAMDEADYFCQAWYSSTNVLFGGGTKLTVLG
notes: Human antibody
B3: 15E1 A107H (antibody, V domains shown)
VH: B1 VH with H99A, A107H
VL: B1 VL
notes: Histidine mutant of 15E1, transiently expressed in 293-6E cells; constant regions as in wild-type 15E1; also called A107H (heavy chain)
B4: 15E1 N57H (antibody, V domains shown)
VH: B1 VH with N57H, H99A
VL: B1 VL
notes: Histidine mutant of 15E1, transiently expressed in 293-6E cells; constant regions as in wild-type 15E1; also called N57H (heavy chain)
B5: antibody 26F11 (antibody, V domains shown)
VH: B1 VH with S31N, A54V, E55G, H99A, I103M
VL: B1 VL with T19S, L27M, R38K, V44I, S51T, F86Y, L97V
notes: Human antibody
B6: human hepcidin (mature, 25 amino acids) (peptide)
peptide: DTHFPICIFCCGCCHRSKCGMCCKT
modifications: disulfide (positions not given here); also: mono-biotinylated in some assays, site not given here
notes: the form is named in each assay field; also called rhuHepc; rhHepc
B7: murine antibody 2.7 (antibody, V domains shown)
VH: QIQLVQSGPELKKPGETVKISCKASGYTFTTYGMSWVKQAPGKGLKWMGWINTYSGVPTYADDFKGRFAFSLETSASTAYLQINNLKNEDTATYFCGRDHYYGEVAYWGQGTLVTVSA
VL: DIVLTQSPASLAVSLGQRATISCRASESVDSYGNSFMHWYQQKPGQPPKLLIYRASNLESGIPARFSGSGSRTDFTLTINPVEADDVATYYCHQSNEEYTFGGGTKLEIK
notes: Murine monoclonal antibody; murine IgG1 was used as its isotypic control; also called Ab2.7; Ab 2.7
B8: antibody 1S1 (antibody, human IgG2, kappa, V domains shown)
VH: QVQLVQSGDEVKKPGASVKVSCKASGYTFIKYGISWVRQAPGQGLEWMGWIGAFNGNTDYARNLQARVTMTTDTSTSTAYMELRSLRSDDTAVYYCAREGWNDDYFSGLDVWGQGTTVTVSS
VL: EIVLTQSPGTLSLSPGERATLSCRASQSVSSNYLAWYQQKPGQAPRLLIYGASSRATGIPDRFSGSGSGTDFTLIISRLEPEDFVVYYCQQYGSSLTFGGGTKVEIKR
notes: Human antibody; also called Ab 1S1
B9: antibody 18B11 (antibody, V domains shown)
VH: QVQLQQWGAGPLKPSETLSLTCAVYNGSFSGYYWSWIRQPPGKGLEWIGDINHSGNTKYNPSLKSRVTISVDTSKNQFSLKLSSVTAADTAVYYCARGDFWSGFDWFDPWGQGTLVTVSS
VL: QSALTQPASVSGSPGQSITISCTGTSSNVGSYNLVSWYQQHPGKAPKLMISEVSKRPSGLSNRFSGSKSGNTASLTISGLQAEDEADYYCCSYAGSSTLIFGGGTKLTVL
notes: Human antibody from Xenomouse IgG2 or IgG4 mice; also called 181311
B10: antibody 23F11 (antibody, V domains shown)
VH: QVQLQQSGPGLVKPSQTLSLTCAISGDSVSSNSAAWNWIRQSPSRGLEWLGRTYYRSKWFNDYAVSVQSRITINPDTSKNQFSLQLNSVTPEDTAVYYCARGIVFSYAMDVWGQGTTVTVSS
VL: NFMLTQPHSVSESPGKTVTISCTRSSGSIASYYVQWYQQRPGSSPTTVIYEDSQRPSGVPDRFSGSIDSSSNSASLTISGLKTEDEADYYCQSYDSSNVVFGGGTKLTVL
notes: Human antibody

How the values were obtained:
[1] = biological target: B6; assay: KinExA solution equilibrium, human hepcidin-coated beads
Procedure: SA-Sepharose beads were pre-coated with biotinylated human hepcidin (SEQ ID NO: 9) and blocked with BSA according to manufacturer's instructions. Antibodies and hepcidin were diluted in PBS/0.1% BSA/0.05% NaN₃ buffer. Fixed concentrations of antibodies 15E1, 15E1 W52H, 15E1 A99H, 15E1 N521-1, 15E1 A107H and 18B11 were incubated with various concentrations of human hepcidin at room temperature for 8 hours before being run through the human hepcidin-coated beads. The amount of the bead-bound antibody was quantified by fluorescently (Cy5)-labeled goat anti-murine-IgG (H+L) antibody (Jackson Immuno Research, West Grove, Pa.). The binding signal is proportional to the concentration of free antibody at equilibrium. Dissociation equilibrium constant (KD) was obtained from nonlinear regression of the competition curves using a dual-curve one-site homogeneous binding model (KinExATM Pro software).

[2] = biological target: B6; assay: ELISA, mono-biotinylated human hepcidin on Neutravidin plate, pH 5.5
Procedure: (§1) Differential pH binding of the antibodies listed above in Table 3 was then determined by ELISA. 50 μL of Neutravidin (Pierce) at 8 μg/mL in 1×PBS was coated upon a Nunc Maxisorp 384-well plate, and incubated at 37° C. for 1 hr. After blocking the wells with 0.1% BSA/PBS/0.05% Tween20 for 1 hour at room temperature, plates were washed six times with PBS/0.05% Tween20. 25 μL of mono-biotinylated hepcidin at 50 ng/mL in 0.1% BSA/PBS/0.05% Tween20 was added to the 384-well plate, and incubated at room temperature for 1 hour. The plates were next washed six times with PBS/0.05% Tween20. Starting hepcidin antibody concentrations were normalized to 1 μg/mL for pH 5.5 and 6.0 conditions and to 100 ng/mL for pH 7.4 conditions. The hepcidin antibodies were serially diluted 3-fold in PBS/1% NFDM pH 7.4 and 4-fold in PBS/1% NFDM pH 6.0 and 5.5. The dilutions and titrations were performed in polypropylene 96-well dilution plates, and then were transferred in duplicate to a Neutravidin-coated 384-well plate. The biotinylated hepcidin and antibodies were incubated for 2 hours at room temperature. The plate was next washed six times with PBS/0.05% Tween20. 25 μL it of goat anti-huIgG-horseradish peroxidase at a 1:7000 dilution in 0.1% BSA/PBS/0.05% Tween20 was next added to each well of the assay plate. The plate was finally washed six times in PBS/0.05% Tween20. Enhanced K-Blue 3,3′,5,5′-Tetramethylbenzidine (TMB) Substrate (Neogen) was added and the reaction stopped using 1 M H₃PO₄ after 10 minutes of incubation at room temperature. The absorption was measured at 450 nm on a plate reader. Binding data were analyzed by non-linear regression analysis (sigmoidal dose-response, variable slope) to generate EC₅₀ values using GraphPad Prism® software. […] Double combinations of these mutants were made.

[3] = biological target: B6; assay: ELISA, mono-biotinylated human hepcidin on Neutravidin plate, pH 6.0
Procedure: as §1

[4] = biological target: B6; assay: ELISA, mono-biotinylated human hepcidin on Neutravidin plate, pH 7.4
Procedure: as §1

[5] = biological target: B6; assay: ELISA, mono-biotinylated human hepcidin on Neutravidin plate, pH 6.0 against pH 7.4
Procedure: as §1

[6] = biological target: B6; assay: BIAcore, recombinant human hepcidin immobilised on a CM5 chip, 50 nM antibody bound at pH 7.4, dissociation buffers of pH 7.4, 6 and 5.5 (curves not labelled by pH)
Procedure: (§2) Off-rate analysis of dissociation at different pHs was also performed. A slow off-rate is expected to predict increased binding interaction over a longer period of time, while a faster off-rate is expected to predict decreased binding interaction. For example, a faster off-rate at lower pH is expected to predict greater release of antigen at lower pH. Solution equilibrium binding analysis was performed using BIAcore to study the off-rates of antibodies 1S1, 1S3, 2.7, 18B11, 23F11 and 26F11 with recombinant human hepcidin (SEQ ID NO: 9).
Immobilization of recombinant human hepcidin (rhuHepc) to a BIAcore sensor chip surface was performed according to manufacturer's instructions at a flow rate 10 μL/min of running buffer (DPBS: Dulbecco's Phosphate Buffer Salinel X, no CaCl or MgCl, with 0.005% Biacore surfactant P-20). The carboxylated matrix of the sensor chip was first activated with a 60 μL injection of a mixture containing 0.2 M EDC(N-ethyl-N-(dimethylamine-propyl)carbodiimide in water, from BIAcore) and 0.05M NHS (N-hydroxysuccinimide in water, from Biacore). 55 μL of recombinant human hepcidin (1 μg/ml in 10 mM Na-acetate pH4.0) was injected to immobilize onto the sensor chip. The excess reactive groups of the sensor chip were deactivated with an injection of 60 μL of ethanolamine (1.0M, from Biacore).
After rhuHepc was immobilized on the CM5 chip with low density, 50 nM of antibodies 1S1, 1S3, 2.7, 18B11, 23F11 and 26F11 were injected over and bound the rhuHepc surface at pH 7.4. Dissociation buffers with pH 7.4, pH6 and pH 5.5 were run over the bound surface. The dissociation curves were obtained.

murine antibody 2.7 [7] = biological target: B7; assay: competitive binding assay, luminescence, standards in rabbit serum: unlabelled hepcidin against biotinylated human hepcidin (0.25 nM) for Ab2.7
Procedure: (§3) Hepcidin levels were determined using hepcidin standards of varying concentrations (from 1.4-300 ng/ml) spiked into buffer (5% BSA:I-block), rabbit serum, or pooled human serum. Hepcidin was added to equal volumes of 40 ng/mL of Ab2.7 and incubated for 120 minutes. 25 μl/well of mixed solution was added to Black half area plates coated with 1-2 μg/mL G×M capture antibody. 25 μL/well of biotinylated hepcidin was added at 0.25 nM. The plate was covered with plate film sealer and incubated at room temperature (25° C.) on a plate shaker at around <200 RPM for around 60 minutes. The plate was washed and then 50 μL/well of Poly horseradish peroxidase amplification reagent at 1:2000 was added. The plate was allowed to sit for 30 minutes and was then washed with a plate washer using PBS or KPL buffer 6 times. The plate was patted dry and a luminescent substrate (Femto or Pico) was quickly added. The plate was read with luminometer (ex: Lmax 340) for 1 second using Femto or Pico Substrate. […] (FIG. 18).

murine antibody 2.7 [8] = biological target: B7; assay: competitive binding assay, luminescence, standards in buffer (5% BSA: I-block): unlabelled hepcidin against biotinylated human hepcidin (0.25 nM) for Ab2.7
Procedure: as §3

murine antibody 2.7 [9] = biological target: B7; assay: competitive binding assay, luminescence, standards spiked into pooled human serum (endogenous hepcidin present, not counted on the axis): unlabelled hepcidin against biotinylated human hepcidin (0.25 nM) for Ab2.7
Procedure: as §3

[10] = biological target: B6; assay: sandwich ELISA built from 1S1 and 23F11 (one curve for the pair of antibodies), hepcidin titrated; the axis gives hepcidin levels before a 50-fold pre-dilution
mouse hepcidin = biological target: T1, mouse hepcidin; assay: competition ELISA
[11] = biological target: B6; assay: antibody at 1:250 dilution; KinExA / BIAcore named in the paragraph
[12] = biological target: B6; assay: BIAcore, rhuHepc immobilised on CM5 chip, dissociation buffers of pH 7.4, 6 and 5.5; dissociation buffer pH 7.4
Procedure: as §2
Immobilization of recombinant human hepcidin (rhuHepc) to a BIAcore sensor chip surface was performed according to manufacturer's instructions at a flow rate 10 μL/min of running buffer (DPBS: Dulbecco's Phosphate Buffer Salinel X, no CaCl or MgCl, with 0.005% Biacore surfactant P-20). The carboxylated matrix of the sensor chip was first activated with a 60 μL injection of a mixture containing 0.2 M EDC(N-ethyl-N-(dimethylamine-propyl)carbodiimide in water, from BIAcore) and 0.05M NHS (N-hydroxysuccinimide in water, from Biacore). 55 μL of recombinant human hepcidin (1 μg/ml in 10 mM Na-acetate pH4.0) was injected to immobilize onto the sensor chip. The excess reactive groups of the sensor chip were deactivated with an injection of 60 μL of ethanolamine (1.0M, from Biacore). […]

Binder	Kd [1] [nM]	EC50 [2] [ng/mL]	EC50 [3] [ng/mL]	EC50 [4] [ng/mL]	fold increase in EC50 as the pH was lowered to 6.0 [5] [fold]	binding result [6]	also measured
B1	> 10	29.1	10.7	4.1	≥ 1.5	–	–
B2	–	–	–	–	–	binds	–
B3	0.031	3.7	3.6	2	≥ 1.5	–	–
B4	3	3.2	4	1.8	≥ 1.5	–	–
B5	–	–	–	–	–	binds	–
B6	–	–	–	–	–	–	IC50 (read off the curve) (murine antibody 2.7 [7]): ~7 ng/mL; IC50 (read off the curve) (murine antibody 2.7 [8]): ~8 ng/mL; IC50 (read off the curve) (murine antibody 2.7 [9]): ~10 ng/mL
B7	–	–	–	–	–	binds	–
B8	–	–	–	–	–	–	EC50 (read off the curve) [10]: ~100 ng/mL
B9	7.4	–	244	2.7	–	–	binding result (mouse hepcidin): no binding; fold reduction in affinity at pH 6 compared to pH 7.4 [11]: ~10 fold; koff [12]: > 0.01 s⁻¹
B10	–	–	–	–	–	–	EC50 (read off the curve) [10]: ~100 ng/mL
